Experimental findings from the Immune Epitope Database (IEDB) are described below.

For the experiment, the target named is HLA-A*02:01. Nature of the experiment: IEDB peptide-MHC binding, purified MHC/competitive/radioactivity; ≥ and ≤ were set here for values at or beyond the usual limits of such assays. Conditions: source organism: Mycobacterium tuberculosis H37Rv.
The IC50 is the concentration needed to halve the response being measured. In the case of ALLALTRAI, the IC50 is 0.42 µM.

For the sequence AYGSFVRTV, the IC50 amounted to 13 µM.

For the sequence ELAAEPTEV, the IC50 was determined as 1.8 µM.

In the case of GLWLSVAAV, the IC50 was 0.11 µM.

For GSFVRTVSL, the IC50 came to 59 µM.

As for HVYAHQAQT, the concentration for half-maximal inhibition (IC50) was found to be 5.5 µM.

In the case of LTRAILIRV, the IC50 worked out at 53 µM.

Regarding QAQTRHPAT, the IC50 is not below 250 µM.

For the sequence RTVSLPVGA, the IC50 was 2.5 µM.

With TEVGQDQYV, the IC50 is not below 250 µM.
